Data as given in patent publication US8287850B2, “Conjugates of hydroxyalkyl starch and a protein, prepared by reductive amination” (Fresenius Kabi Deutschland GmbH, priority 2004, dated 2012).

Columns and labels:
[1] = cited from earlier work
[2] = In-vivo half-life of alpha1AT samples in mice (alpha1AT-ELISA); details: 100 μl of 50 μg/ml i.v. tail vein, female BALB/c mice
Protocol: Female mice aged 8-10 weeks (BALB/cOlaHsd, Harlan GmbH, Borchen, Germany) were utilized as test organism (42 mice, 14 per sample). The “is bodyweight” of each animal was detected right before administration of the different sample solutions. 100 μl of a 50 μg/ml solution of the samples outlined below in a puffer pH=7.2 (20 mmol sodium phosphate, 150 mmol sodium chloride) were injected intravenously in the tail vein of the mice.
At 1, 2, 4, 10, 24, 31, […], hours after injection, two mice of each group were killed and whole blood samples (˜500 μl) were withdrawn from the heart of the animals. Serum was prepared using Microvette® 500 Z-Gel (Sarstedt, Nümbrecht, Germany). The serum samples were stored at −80° C. until the beginning of the alpha1AT concentration measurements.
alpha1AT concentrations were detected using a commercially available alpha1AT-ELISA (Immundiagnostik, Bensheim, Germany) following the manufacturers instructions.

Substance	circulatory activity half-life in vivo [1]	Plasma half-life in mice [2] [h]
activated protein C	less than 30 min	–
A1AT: rh A1AT provided by GTC Biotherapeutics Inc., lot No. 080604A; starting material for the conjugation [Example A1AT]	–	1.2
HES-A1AT-conjugate: conjugate of aldehydo-HES (A) and (B) (MW 57,000 D, DS 0.76) with rh A1AT, example 5.5	–	3.6
